Results published in patent US20240076348A1.

Biological target: Colony-stimulating factor-1 receptor (CSF-1R), encoded by c-fms (UniProt P07333)
Assay: cell-based or functional assay

## C34B pCAR (CSF1-28z plus IL34-41BB), expressed on human T-cells (from UniProt P09603 33-190; Q6ZMJ4 21-242)
  tumour cell killing on repeated re-stimulation, MTT assay on T47D FMS and T47D monolayers (iterative cycles of re-stimulation): < 13
